Biological target: Staphylococcal enterotoxin G, wild type (Staphylococcus aureus (staphylococcal)) (UniProt P0A0L8)
Experiment: SPR

Soluble mouse TCR β chain Vβ8.2 protein
Kd: 370 nM
